Source: the PETadex activity labels (doi:10.1038/s41467-025-61599-z)

B1: unnamed (protein)
chain: MRARIAALVAVPFLGAGAFAVSSVAAGDPPAVRTVPAAAAAPVDWSKTGPHQVKVDKADAHTIYRPSDLGSGGVKNPVVIWGNGTGATPAAYDGLLRHWASHGFVVAAANTKQANNGNAMRAGLDLVTKWNTTSSSPYYGKVDVSRVASSGHSQGGAGAMNAAVDTRVDAVLPIQPGPLAAPRKFKQPTFYMAGQNDRVVWPSWVRNFYNKSGHLPAVFGVVRGATHVAPAGDGGAFRGPTTAWLSFTLRGDASARAQFAGASCGYCGASSPFSNWLRNTRFTSQNG
B2: unnamed (protein)
chain: MRVLAMTLALVASTLATPTALAAPPDYGLPGSYPVAYSDVTAVAGGRSVPARVHYPATTSGTNQPVATGRFPVIAFGHGFFQATSKYTSTSTHLASWGFVVVVPTTQGGLSPSHGAFADDLNTGLTWLVAQDGTTGSRFRDHITTTALGVSGHSMGGGAAVLAAARNPKIKAVSTYAAAETNPSAKAAAATLAAPAQFLAGSQDTITPVGDHQRPMFTAKPPARQLRTITGGFHCGFMDSSGLFCDNGSITRAAQLTASKRVMTSWFRHYLSGDTAARDLVWGQPARTDPAVVFEGTE
B3: unnamed (protein)
chain: MAVMTPRRERSSLLSRALQVTAAAATALVTAVSLAAPAHAANPYERGPNPTDALLEASSGPFSVSEENVSRLSASGFGGGTIYYPRENNTYGAVAISPGYTGTEASIAWLGERIASHGFVVITIDTITTLDQPDSRAEQLNAALNHMINRASSTVRSRIDSSRLAVMGHSMGGGGTLRLASQRPDLKAAIPLTPWHLNKNWSSVTVPTLIIGADLDTIAPVATHAKPFYNSLPSSISKAYLELDGATHFAPNIPNKIIGKYSVAWLKRFVDNDTRYTQFLCPGPRDGLFGEVEEYRSTCPF
B4: unnamed (protein)
chain: MGGGGEDNVFAEPGDFDVVTEPGGRDCTIFRPEQLGDDHAVVIWGNGTGASPNTYAGLLRHYASHGFVVVAANTSNAGTGEDMLNCLDFLEGSQLASSVDFSKVGATGHSQGGGGAIMAGVDPRIATTAPIEGFTLGLGHDRDSHDQQNGPMLILSGSADRLVNPRTNHAPLFDATNVPAFWAIAQGAGHFEPVGDGGDFRGISTAWFLFQLEDDPEATTHFVGDDCFVCEDPGFDVEGVKEID
B5: unnamed (protein)
chain: MQDNSDGRYRPEGRTFARGAANLFDDRLFEARTYVTGTDVAEFASATIFYPLTLSFDLPNGVVVMSPGYTGTPESYDWWGPMLASVGIITAIIETNTPEDNLEQRKNALIAGIELIKRENANSASPINNKVDESQIAIMGHSLGGGASLRAAEELEGDIKAVIPLTPYCCELGQSFEGDLKGVSTPTLIIAAADDTIAPPETHSRLLYDEINSSTNKVYLEFAEGAHGLPTNQGSEFQTQGTYVYAFLKANFTNDSKYSDFIGGDGEDSFSSYETN
B6: unnamed (protein)
chain: MKTNRRTLMLTGIAMTIGTAGRAAQATPEFKPQPGPLSIKSAAAISFRVEDQAKDLQIRVTYPDGPGPWPAIIFSHGAMSSKDFYNRVADHWATHGYATILPTHLDSESLGYSFKNPLPREKVFFGRIGDMQFILNHLDEIAGKAGIAGKIEKTKLAVAGHSFGGWTSLILAGLPVKMPDGSLKSFADSRIKALVSYNGIGPMDEIPDAAWAKVAIPVFAASGTNDPGATGSGPVHPWRWRIGAYDYAGSKEKYAVSITMGDHYYGGLICREGAGGKPDPEGLSFVNGSSTAFMDAYLKDDKSAKKFLRTADLRPLTNDRAFLERS
B7: unnamed (protein)
chain: MAVITPRRERSSLLSRALRFTAAAATALVTAVSLAAPAHAANPYERGPNPTDALLEARSGPFSVSEERASRFGADGFGGGTIYYPRENNTYGAVAISPGYTGTQASVAWLGKRIASHGFVVITIDTNTTLDQPDSRARQLNAALDYMINDASSAVRSRIDSSRLAVMGHSMGGGGSLRLASQRPDLKAAIPLTPWHLNKNWSSVRVPTLIIGADLDTIAPVLTHARPFYNSLPTSISKAYLELDGATHFAPNIPNKIIGKYSVAWLKRFVDNDTRYTQFLCPGPRDGLFGEVEEYRSTCPF
B8: unnamed (protein)
chain: MLSKRGILGALAGGAVAVGCLTAPAHAAGFEKGPDPTTASVTADRGSYDIAQVDVPKGSGTGFADGTIYYPKSTADGTFGAVAVIPGFLEPKSAIDWYGPRLASQGFVVMTLDTTSVFDTPDSRGGQLLAALDYLTSKSTVKDRIDPNRLAVVGHSMGGGGTLSAAANRPNLKAAVALAPWHVSAPLTSVKTPTMIFGSDNDFIAPDGTFAKPFYDGISNAPEKAYVRLKNAGHMAYVFPDKRIAEYTLSWLKRYVDDDTRYTQFLCPGPTNESTIAAYKSTCPM
B9: unnamed (protein)
chain: MSHRFRLAAAVCVAAAILVPATPAAAADPWDAPGPYATAVQIGAVNTLYYPRDIASSPRRHPVIVWGNGTGAAPLVYRDLLLYWASHGFIVSAANTPASNLGISMRLGIDALAAADADPGSIFRGKVDLAHIGASGHSQGGAAAIVVGADPRIDAILPIQPGPLADIDDVHVPALLLAGQHDSIVFPFLVKAFYNDATHIPAIYAEVRGADHFTVVGDPGPFAAPTTAWFRFQLMGDTAARAEFYGPSCGICTDTRTWSDVRRNALVP
B10: unnamed (protein)
chain: MNAPLFKLAALTLGLSLASVVLANNPGGGGGTAPDTGTGFPGVSNFSASGSFATTSGSAGASCTVFRPSTLGANNRKHPIIVWGNGTTASPNTYASLLQHWASHGFVVIAANTSNAGTGQEMLGCVDYLTTQNNRSTGTYAGKLDLNRIGAAGHSQGGGGTIMAGQDYRIKVTAPFQPYTIGLGHNSSSQSNQNGPMFLMTGSIDTIASPTLNALPVYTRANVPVFWGELSGASHFEPVGNAGDFRGPATAWFRYHLMDDASAEDTFYGSNCDLCTDRDWDVRRKGIN
B11: unnamed (protein)
chain: APPDYGLPGSYPVAYSDVTAVAGGRSVPARVHYPATTSGTNQPVATGRFPVIA
B12: unnamed (protein)
chain: MNFPRASRLMQAAVLGGLMAVSAAATAQTNPYARGPNPTAASLEASAGPFTVRSFTVSRPSGYGAGTVYYPTNAGGTVGAIAIVPGYTARQSSIKWWGPRLASHGFVVITIDTNSTLDQPSSRSSQQMAALRQVASLNGTSSSPIYGKVDTARMGVMGWSMGGGGSLISAANNPSLKAAAPQAPWDSSTNFSSVTVPTLIFACENDSIAPVNSSALPIYDSMSRNAKQFLEINGGSHSCANSGNSNQALIGKKGVAWMKRFMDNDTRYSTFACENPNSTRVSDFRTANCS
B13: unnamed (protein)
chain: MNFPRASRLMQAAVLGGLMAVSAAATAQTNPYARGPNPTAASLEASAGPFTVRSFTVSRPSGYGAGTVYYPTNAGGTVGAIAIVPGYTARQSSIKWWGPRLASHGFVVITIDTNSTLDQPESRSSQQMAALRQVASLNGTSSSPIYGKVDTARMGVMGWSMGGGGSLISAANNPSLKAAAPQAPWHSSTNFSSVTVPTLIFACENDSIAPVNSSALPIYDSMSQNAKQFLEIKGGSHSCANSGNSNQALIGKKGVAWMKRFMDNDTRYSTFACENPNSTAVSDFRTANCS

Substrate: not listed separately
Test: Proxy for plastic degradation [UPLC/UHPLC]
Settings: pH 9; 30 °C

| Protein | Proxy for plastic degradation [µM] |
| --- | --- |
| B1 | 12.7 |
| B2 | 13 |
| B4 | 14 |
| B5 | 15.4 |
| B6 | 15.7 |
| B8 | 14.7 |
| B9 | 13 |
| B10 | 8.31 |

Same assay, conditions: pH 9; 40 °C

| Protein | Proxy for plastic degradation [µM] |
| --- | --- |
| B1 | 12.6 |
| B2 | 18 |
| B4 | 13.8 |
| B5 | 15.5 |
| B6 | 12.8 |
| B8 | 14.2 |
| B9 | 13.4 |
| B10 | 9.03 |

Same assay, conditions: pH 9; 50 °C

| Protein | Proxy for plastic degradation [µM] |
| --- | --- |
| B1 | 15.7 |
| B2 | 16.6 |
| B4 | 15.8 |
| B5 | 15.5 |
| B6 | 17.3 |
| B8 | 14.1 |
| B9 | 14.2 |
| B10 | 9.57 |

Same assay, conditions: pH 9; 55 °C

| Protein | Proxy for plastic degradation [µM] |
| --- | --- |
| B1 | 16 |
| B2 | 16.2 |
| B4 | 14.4 |
| B5 | 16.6 |
| B6 | 17.3 |
| B8 | 14.4 |
| B9 | 13.4 |
| B10 | 9.09 |

Same assay, conditions: pH 9; 60 °C

| Protein | Proxy for plastic degradation [µM] |
| --- | --- |
| B1 | 16.4 |
| B2 | 16.5 |
| B4 | 14.9 |
| B5 | 16.1 |
| B6 | 17.2 |
| B8 | 15 |
| B9 | 14.1 |
| B10 | 9.47 |

Substrate: PET
Test: Proxy for plastic degradation [Released monomer concentration (HPLC/LC-MS) (TPA+MHET)]
Settings: 30 °C

| Protein | Proxy for plastic degradation [µM] |
| --- | --- |
| B3 | 7.78 |
| B7 | 2.77 |

Same assay, conditions: 40 °C

| Protein | Proxy for plastic degradation [µM] |
| --- | --- |
| B3 | 26.7 |
| B7 | 2.15 |

Same assay, conditions: 50 °C

| Protein | Proxy for plastic degradation [µM] |
| --- | --- |
| B3 | 124 |
| B7 | 2.1 |

Same assay, conditions: 55 °C

| Protein | Proxy for plastic degradation [µM] |
| --- | --- |
| B3 | 850 |
| B7 | 2.23 |

Same assay, conditions: 60 °C

| Protein | Proxy for plastic degradation [µM] |
| --- | --- |
| B3 | 140 |
| B7 | 0 |

Substrate: pNPB
Test: Proxy for plastic degradation [Absorbance @ 430nm] (min⁻¹)
Settings: pH 8; part of the chain shown

| Protein | Proxy for plastic degradation |
| --- | --- |
| B11 | 13000 |
| B12 | 18300 |

Substrate: PET
Test: Proxy for plastic degradation [Released monomer concentration (HPLC/LC-MS) (MHET+TPA)]
Settings: pH 9; 30 °C; part of the chain shown

| Protein | Proxy for plastic degradation [µM] |
| --- | --- |
| B11 | 13 |
| B12 | 37.5 |

Same assay, conditions: pH 9; 40 °C; part of the chain shown

| Protein | Proxy for plastic degradation [µM] |
| --- | --- |
| B11 | 18 |
| B12 | 31.2 |

Same assay, conditions: pH 9; 50 °C; part of the chain shown

| Protein | Proxy for plastic degradation [µM] |
| --- | --- |
| B11 | 16.6 |
| B12 | 18 |

Same assay, conditions: pH 9; 55 °C; part of the chain shown

| Protein | Proxy for plastic degradation [µM] |
| --- | --- |
| B11 | 16.2 |
| B12 | 15.4 |

Same assay, conditions: pH 9; 60 °C; part of the chain shown

| Protein | Proxy for plastic degradation [µM] |
| --- | --- |
| B11 | 16.5 |
| B12 | 15.6 |

Substrate: not listed separately
Test: Proxy for plastic degradation [UPLC/UHPLC]
Settings: pH 9; 30 °C; part of the chain shown

| Protein | Proxy for plastic degradation [µM] |
| --- | --- |
| B12 | 37.5 |

Same assay, conditions: pH 9; 40 °C; part of the chain shown

| Protein | Proxy for plastic degradation [µM] |
| --- | --- |
| B12 | 31.2 |

Same assay, conditions: pH 9; 50 °C; part of the chain shown

| Protein | Proxy for plastic degradation [µM] |
| --- | --- |
| B12 | 18 |

Same assay, conditions: pH 9; 55 °C; part of the chain shown

| Protein | Proxy for plastic degradation [µM] |
| --- | --- |
| B12 | 15.4 |

Same assay, conditions: pH 9; 60 °C; part of the chain shown

| Protein | Proxy for plastic degradation [µM] |
| --- | --- |
| B12 | 15.6 |

Substrate: PET
Test: Proxy for plastic degradation [Released monomer concentration (HPLC/LC-MS) (TPA+MHET)]
Settings: 30 °C; part of the chain shown

| Protein | Proxy for plastic degradation [µM] |
| --- | --- |
| B12 | 37.5 |

Same assay, conditions: 40 °C; part of the chain shown

| Protein | Proxy for plastic degradation [µM] |
| --- | --- |
| B12 | 31.2 |

Same assay, conditions: 50 °C; part of the chain shown

| Protein | Proxy for plastic degradation [µM] |
| --- | --- |
| B12 | 18 |

Same assay, conditions: 55 °C; part of the chain shown

| Protein | Proxy for plastic degradation [µM] |
| --- | --- |
| B12 | 15.6 |

Same assay, conditions: 60 °C; part of the chain shown

| Protein | Proxy for plastic degradation [µM] |
| --- | --- |
| B12 | 0 |

Same assay, conditions: pH 9; 30 °C; 24 h; part of the chain shown

| Protein | Proxy for plastic degradation [µM] |
| --- | --- |
| B12 | 70.2 |

Same assay, conditions: pH 9; 30 °C; 48 h; part of the chain shown

| Protein | Proxy for plastic degradation [µM] |
| --- | --- |
| B12 | 69.5 |

Same assay, conditions: pH 9; 30 °C; 72 h; part of the chain shown

| Protein | Proxy for plastic degradation [µM] |
| --- | --- |
| B12 | 15.4 |

Substrate: PET
Test: Proxy for plastic degradation [kcat/Km (catalytic efficiency)] (mM⁻¹s⁻¹)
Settings: pH 8

| Protein | Proxy for plastic degradation |
| --- | --- |
| B13 | 0.141 |

Substrate: not listed separately
Test: Proxy for plastic degradation [Released monomer concentration (HPLC/LC-MS) (TPA+MHET)]
Settings: 30 °C

| Protein | Proxy for plastic degradation [µM] |
| --- | --- |
| B13 | 213 |

Same assay, conditions: 40 °C

| Protein | Proxy for plastic degradation [µM] |
| --- | --- |
| B13 | 272 |

Same assay, conditions: 50 °C

| Protein | Proxy for plastic degradation [µM] |
| --- | --- |
| B13 | 2110 |

Same assay, conditions: 60 °C

| Protein | Proxy for plastic degradation [µM] |
| --- | --- |
| B13 | 58 |
